Measured values published in article PMC8368100, “Structural basis for ALK2/BMPR2 receptor complex signaling through kinase domain oligomerization” (Nature Communications, 2021).
Residue numbers refer to the chain shown, from its start. In names and notes the source's numbering stands. Values belong to the binder of their own block, whether it stands above or below them.

Target: T1, BMPR2 kinase domain (BMPR2^KD, residues 189-529) (human, UniProt Q13873 189-529)
T1 construct: BMPR2, type II BMP receptor, kinase domain, residues 189-529; TEV site between His tag and kinase domain; also called BMP receptor type II; source: BL21 E. coli, purified (Ni-NTA, TEV cleavage, SEC, Mono-Q); not shown: His tag, N-terminal, cleaved
T1 sequence (looked up): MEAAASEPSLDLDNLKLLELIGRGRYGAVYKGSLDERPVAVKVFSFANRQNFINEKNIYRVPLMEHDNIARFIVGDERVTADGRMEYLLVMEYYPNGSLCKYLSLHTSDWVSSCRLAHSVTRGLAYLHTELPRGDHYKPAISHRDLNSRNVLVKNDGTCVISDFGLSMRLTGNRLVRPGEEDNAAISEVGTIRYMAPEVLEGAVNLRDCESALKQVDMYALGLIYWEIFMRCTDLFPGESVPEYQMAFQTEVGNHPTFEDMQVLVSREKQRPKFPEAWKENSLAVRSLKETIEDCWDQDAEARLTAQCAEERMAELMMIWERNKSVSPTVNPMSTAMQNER
Assay: SEC; Superdex 200 Increase 10/300 GL; kinase domains alone or as a stoichiometric mixture; also run in buffers with increasing NaCl
Settings: both partners purified

- binding result: binds
B1: ALK2 kinase domain (ALK2^KD, residues 201-499) (domain or fragment, human, UniProt Q04771 201-499, looked up)
chain: QRTVARQITLLECVGKGRYGEVWRGSWQGENVAVKIFSSRDEKSWFRETELYNTVMLRHENILGFIASDMTSRHSSTQLWLITHYHEMGSLYDYLQLTTLDTVSCLRIVLSIASGLAHLHIEIFGTQGKPAIAHRDLKSKNILVKKNGQCCIADLGLAVMHSQSTNQLDVGNNPRVGTKRYMAPEVLDETIQVDCFDSYKRVDIWAFGLVLWEVARRMVSNGIVEDYKPPFYDVVPNDPSFEDMRKVVCVDQQRPNIPNRWFSDPTLTSLAKLMKECWYQNPSARLTALRIKKTLTKID
notes: ALK2 (ACVR1), type I BMP receptor, kinase domain without the GS domain, residues 201-499; TEV site between His tag and kinase domain; also called ACVR1; ActRIA; source: SF9 insect cells, purified (Ni-NTA, TEV cleavage, SEC); not shown: His tag, N-terminal, cleaved

- binding result: binds
B2: ALK2^KD-K492A (ALK2 kinase domain K492A) (domain or fragment, human, UniProt Q04771 201-499, looked up)
chain: B1 chain with K292A
notes: ALK2 (ACVR1) kinase domain, residues 201-499, K492A; source: SF9 insect cells, purified (Ni-NTA, TEV cleavage, SEC); not shown: His tag, N-terminal, cleaved
